Bridge positions count the residues as written; N and C are the ends. Square brackets hold non-standard residues; d marks the D form. Primed or numbered codes have the meaning given here. Ends that are not written are not given here. * marks the point of attachment. N‑ω hexylcarbamate = hexyl carbamate on the ω-nitrogen of the arginine side chain, CCCCCCOC(=O)*; mXylyl = xylyl linker from dibromoxylene joining the two cysteines; mXylyl″ = dibromoxylene linker (meta) joining the cysteines; 4‑BZA = 2-amino-3-(4-carbamimidoylphenyl)propanoic acid; Trp(5-Cl) = N[C@@H](Cc1c[nH]c2ccc(Cl)cc12)C(=O)O; des‑NH2 = missing amino-terminal amine group; Phe(3-Cl) = N[C@@H](Cc1cccc(Cl)c1)C(=O)O; Phe(4-Cl) = N[C@@H](Cc1ccc(Cl)cc1)C(=O)O; NMeR = CN[C@@H](CCCNC(=N)N)C(=O)O; NMeI = CC[C@H](C)[C@H](NC)C(=O)O; BODIPY‑TMR = fluorescent label; Phg(2-OMe)′ = not defined here; dPhg = N[C@@H](C(=O)O)c1ccccc1; Chg = N[C@H](C(=O)O)C1CCCCC1; Phg = N[C@H](C(=O)O)c1ccccc1; Tle = CC(C)(C)[C@H](N)C(=O)O; αMeP = C[C@@]1(C(=O)O)CCCN1; NMeS = CN[C@@H](CO)C(=O)O; 2‑APY = not defined here; 3‑BZA = not defined here; Orn = NCCC[C@H](N)C(=O)O; Ac5c = NC1(C(=O)O)CCCC1; Aze = O=C(O)[C@@H]1CCN1; Dab = NCC[C@H](N)C(=O)O; Thp = NC1(C(=O)O)CCOCC1; Ac4c = NC1(C(=O)O)CCC1; Ac3c = NC1(C(=O)O)CC1; Aib = CC(C)(N)C(=O)O; Mpa = O=C(O)CCS
biological target: Activated human plasma kallikrein (Enzyme Research Laboratories, HPKa 1303) (human, UniProt P03952 20-638); test: cell-based or functional assay
Sequence (P03952 20-638 limits assumed): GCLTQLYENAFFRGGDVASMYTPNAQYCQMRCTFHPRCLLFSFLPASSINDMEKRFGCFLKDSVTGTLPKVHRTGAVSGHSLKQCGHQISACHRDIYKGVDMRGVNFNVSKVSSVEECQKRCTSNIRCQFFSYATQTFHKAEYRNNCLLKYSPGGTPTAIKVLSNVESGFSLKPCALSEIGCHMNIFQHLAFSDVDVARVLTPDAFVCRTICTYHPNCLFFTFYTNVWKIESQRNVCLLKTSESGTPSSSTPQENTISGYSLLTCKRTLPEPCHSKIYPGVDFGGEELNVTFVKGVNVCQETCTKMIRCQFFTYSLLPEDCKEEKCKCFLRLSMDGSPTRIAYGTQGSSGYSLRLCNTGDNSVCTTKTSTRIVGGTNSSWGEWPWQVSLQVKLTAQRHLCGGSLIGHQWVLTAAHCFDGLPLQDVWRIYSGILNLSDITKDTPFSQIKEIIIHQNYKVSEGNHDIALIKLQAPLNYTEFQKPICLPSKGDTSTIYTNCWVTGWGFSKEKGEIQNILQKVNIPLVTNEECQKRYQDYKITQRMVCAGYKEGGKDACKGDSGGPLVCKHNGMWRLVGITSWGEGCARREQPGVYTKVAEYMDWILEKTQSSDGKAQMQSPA

| Binder | Avg. IC50 [nM] |
| --- | --- |
| {des‑NH2}-CS[Chg]CR[Tle]-NH2 (linker 1-4 via mXylyl) [R2164] | 10.1 |
| [Mpa][Ac5c][Chg]CR[Tle]-NH2 (linker 1-4 via mXylyl) [R2168] | 11.3 |
| {des‑NH2}-CP[Chg]CR-{2‑methyl‑1‑(4H-1,2,4-triazol-3-yl)propan‑1‑amine} (linker 1-4 via mXylyl) [R2197] | 56.9 |
| [Mpa]ESIC[Orn]V-NH2 (linker 1-5 via mXylyl) [R2172] | > 100000 |
| {des‑NH2}-CE[Chg]CR[Tle]-NH2 (linker 1-4 via mXylyl) [R2201] | 7 |
| CXAGCRV ([mXylyl(1,5)](des-NH2)C-(Cyclo-L)-A-Chg-CR-V-NHCH3) [R2178] | 3.2 |
| {des‑NH2}-CP[Phg]CR[Tle]-NH2 (linker 1-4 via mXylyl) [R2188] | 3.4 |
| [Mpa][Aib][Chg]CR[Tle]-NH2 (linker 1-4 via mXylyl) [R2176] | 15.2 |
| {BODIPY‑TMR}-MCESICRV-NH2 (linker 2-6 via mXylyl) [R2193] | 205 |
| {des‑NH2}-CP[Chg]CR[Tle]-NH2 (linker 1-4 via mXylyl) [R2167] | 10.7 |
| CESICRV-NH2 (linker 1-5 via mXylyl″; not fully specified (residues 1, 6, N-terminus); printed as [mXylyl(1,5)](des-NH2)C-ESIC-r-V-NH2) [R2171] | > 100000 |
| {des‑NH2}-CP[Chg]C[2‑amino‑4‑(6-aminopyridin-3-yl)butanoic acid]V-NH2 (linker 1-4 via mXylyl; not fully specified (residue 1)) [R2203] | > 10000 |
| {des‑NH2}-CP[Phg]C[Trp(5-Cl)][Tle]-NH2 (linker 1-4 via mXylyl) [R2209] | > 75000 |
| {des‑NH2}-CP[αMePhg]CR[Tle]-NH2 (linker 1-4 via mXylyl) [R2192] | 851 |
| {des‑NH2}-CP[dPhg]C[Trp(5-Cl)][Tle]-NH2 (linker 1-4 via mXylyl) [R2210] | > 75000 |
| [Mpa][Ac5c]A[Chg]CRV-OH (linker 1-5 via mXylyl) [R2175] | 379 |
| [Mpa]P[Chg]C[2‑APY][Tle]-NH2 (linker 1-4 via mXylyl; reading uncertain; also: printed as [mXylyl(1,4)](Des-NH2)C-P-Chg-C-(2-APY-Tbg-NH2)) [R2198] | > 15000 |
| {des‑NH2}-CP[dPhg]CR[Tle]-NH2 (linker 1-4 via mXylyl) [R2187] | > 4700 |
| {des‑NH2}-C[NMeS][Chg]CR[Tle]-NH2 (linker 1-4 via mXylyl) [R2165] | 82.1 |
| [Mpa][Aib]A[Chg]CR[Tle]LRYSE-NH2 (linker 1-5 via mXylyl) [R2190] | 0.511 |
| {des‑NH2}-CS[NMeI]CR[Tle]-NH2 (linker 1-4 via mXylyl) [R2204] | > 25000 |
| {des‑NH2}-C[αMeP][Chg]CR[Tle]-NH2 (linker 1-4 via mXylyl) [R2180] | 6.8 |
| {des‑NH2}-CP[dPhg]C[Phe(3-Cl)][Tle]-NH2 (linker 1-4 via mXylyl) [R2208] | > 75000 |
| [Mpa][Aze][Chg]CR[Tle]-NH2 (linker 1-4 via mXylyl) [R2194] | 127 |
| {des‑NH2}-CP[Chg]CRV-OH (linker 1-4 via mXylyl) [R2183] | > 3500 |

| Binder | Avg. IC50 [nM] |
| --- | --- |
| [Mpa][Aib]A[Chg]CR-{2‑amino‑3,3‑dimethylbutan‑1‑ol} (linker 1-5 via mXylyl) [R2162] | 466 |
| {des‑NH2}-CP[dPhg]C[Phe(4-Cl)][Tle]-NH2 (linker 1-4 via mXylyl) [R2206] | > 75000 |
| {des‑NH2}-CP[Phg]C[Phe(3-Cl)][Tle]-NH2 (linker 1-4 via mXylyl) [R2207] | > 75000 |
| [Mpa][Aib]A[Chg]CR[Tle]LRYSE(PEG 40 kDa)-NH2 (linker 1-5 via mXylyl) [R2191] | 5.5 |
| [Mpa][Ac5c][Chg]CK[Tle]-NH2 (linker 1-4 via mXylyl) [R2174] | 870 |
| {des‑NH2}-CP[Phg(2-OMe)′]CR[Tle]-NH2 (linker 1-4 via mXylyl) [R2189] | 39.8 |
| [Mpa][Thp]A[Chg]C[3‑BZA]V-NH2 (linker 1-5 via mXylyl; reading uncertain; also: printed as [mXylyl(1,5)](des-NH2)C-AcPyr-A-Chg-C-(3-BZA)-V-NH2) [R2179] | > 8230 |
| [Mpa][Ac3c][Chg]CR[Tle]-NH2 (linker 1-4 via mXylyl) [R2177] | 34.1 |
| {des‑NH2}-CP[Chg]CRV-NHMe (linker 1-4 via mXylyl) [R2184] | 15.7 |
| {des‑NH2}-C[αMeP][dPhg]CR[Tle]-NH2 (linker 1-4 via mXylyl) [R2200] | 470 |
| [Mpa][Thp]A[Chg]C[4‑BZA](N‑hexylcarbamate)V-NH2 (linker 1-5 via mXylyl) [R2185] | > 100000 |
| [Mpa][Ac4c][Chg]CR[Tle]-NH2 (linker 1-4 via mXylyl) [R2181] | 18.5 |
| {des‑NH2}-CP[Chg]CR-OH (linker 1-4 via mXylyl) [R2195] | > 175000 |
| {des‑NH2}-CP[Chg]CR(N‑ω hexylcarbamate)[Tle]-NH2 (linker 1-4 via mXylyl) [R2186] | > 100000 |
| [Mpa][Thp][Chg]CR[Tle]-NH2 (linker 1-4 via mXylyl) [R2182] | 13.5 |
| {des‑NH2}-CP[Phg]CR[Tle]L-OH (linker 1-4 via mXylyl) [R2202] | 58.8 |
| MCESIC[NMeR]V-NH2 (linker 2-6 via mXylyl) [R2163] | 1960 |
| {des‑NH2}-CP[Phg]C[Dab][Tle]-NH2 (linker 1-4 via mXylyl; not fully specified (residue 1); printed as [mXylyl(1,4)](des-NH2)C-P-Phg-C-Dab-Tbg-NH2) [R2211] | > 75000 |
| [Mpa][Thp]A[Chg]C[4‑BZA]V-NH2 (linker 1-5 via mXylyl) [R2166] | 310 |
| [Mpa][Ac5c]A[Chg]CR[Tle]-NH2 (linker 1-5 via mXylyl) [R2169] | 1.9 |
| {des‑NH2}-CP[Phg]C[Phe(4-Cl)][Tle]-NH2 (linker 1-4 via mXylyl) [R2205] | > 75000 |
| {des‑NH2}-C[αMeP][Phg]CR[Tle]-NH2 (linker 1-4 via mXylyl) [R2199] | 0.54 |
| {des‑NH2}-CP[Chg]CR-{(S)‑2,2‑dimethyl‑1‑(pyridin-2-yl)propan‑1‑amine} (linker 1-4 via mXylyl) [R2196] | 35.6 |
| [Mpa][Ac5c]A[Chg]CR[Tle]LRY-NH2 (linker 1-5 via mXylyl) [R2170] | 2.1 |
